Test results: publication PMC8152475 (Biomedicines, 2021)

Tests used:
[1] = test system: Caspase 3, FasL, Fas, and Bax in epithelioid cells and multinucleated giant cells; settings: ref [45]; cited from earlier work
[2] = test system: apoptosis and inflammation; settings: ref [10],[11]; cited from earlier work
HK2 = format: binding
[3] = test system: murine macrophages and patients with TB; settings: ref [10],[11]; cited from earlier work
TBK1 = biological target: T1, TBK1 (Homo sapiens, UniProt Q9UHD2); format: binding
T1 sequence (Q9UHD2 1-729): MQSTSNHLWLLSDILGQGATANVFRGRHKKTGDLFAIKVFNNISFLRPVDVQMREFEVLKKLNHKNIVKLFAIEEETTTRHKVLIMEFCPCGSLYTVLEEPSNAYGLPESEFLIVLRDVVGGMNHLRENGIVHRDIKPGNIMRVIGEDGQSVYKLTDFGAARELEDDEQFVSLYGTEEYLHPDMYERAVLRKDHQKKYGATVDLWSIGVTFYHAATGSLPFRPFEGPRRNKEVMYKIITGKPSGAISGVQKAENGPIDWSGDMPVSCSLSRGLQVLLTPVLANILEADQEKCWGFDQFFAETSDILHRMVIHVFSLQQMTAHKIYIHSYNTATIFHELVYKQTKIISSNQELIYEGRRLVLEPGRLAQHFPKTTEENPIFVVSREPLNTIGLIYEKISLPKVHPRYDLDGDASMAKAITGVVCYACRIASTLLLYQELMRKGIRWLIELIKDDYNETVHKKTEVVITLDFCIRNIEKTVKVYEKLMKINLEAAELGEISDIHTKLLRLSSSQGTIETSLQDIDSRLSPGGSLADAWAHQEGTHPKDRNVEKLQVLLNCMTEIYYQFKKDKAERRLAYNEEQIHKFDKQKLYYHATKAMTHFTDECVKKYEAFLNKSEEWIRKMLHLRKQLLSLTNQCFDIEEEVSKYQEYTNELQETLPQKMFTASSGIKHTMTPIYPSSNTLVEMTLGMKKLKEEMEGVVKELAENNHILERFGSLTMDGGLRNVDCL

B1: MPT64: secretory immunodominant antigen of MTB, located in the RD2 region (protein)
chain: APKTYCEELKGTDTGQACQIQMSDPAYNINISLPSYYPDQKSLENYIAQTRDKFLSAATSSTPREAPYELNITSATYQSAIPPRGTQAVVLKVYQNAGGTHPTTTYKAFDWDQAYRKPITYDTLWQADTDPLPVVFPIVQGELSKQTGQQVSIAPNAGLDPVNYQNFAVTNDGVIFFFNPGELLPEAAGPTQVLVPRSAIDSMLA
relation to expression of apoptotic factors [1]: related to the expression of apoptotic factors, such as Caspase 3, FasL, Fas, and Bax
apoptosis, TGF-β expression and inflammation [2]: reduced apoptosis by increasing the expression of TGF-β and reducing inflammation
domain of HK2 required for binding (HK2): HK2 domain in HK2 were found to be essential for their interaction with MPT64
region of MPT64 binding HK2 (HK2): The C-terminal of MPT64 was associated with HK2 and its essential peptides were located between 187–193
production of IFN-γ [3]: induced the production of IFN-γ in murine macrophages and patients with TB
region of MPT protein binding TBK1 (TBK1): The N-terminal domain of MPT64 interacted with TBK1, and the core peptide sequences for binding were 24–28 and 34–38 peptides
